Measurements from PMC6628914.

Target: HIV-1 BaL envelope (Env, gp120-gp41) on HIV-1 BaL pseudovirions (HIV-1 BaL, Env clone BaL.01) (UniProt Q2MKA9)
Experiment: two-color fluorescence correlation spectroscopy (FCS)

**Q.** How did the percent of mAb virion-bound (slower diffusion coefficient) turn out when “mAb b12 (IgG), Alexa 647-labelled (antibody)” was run?
**A.** 42%
